Data published in article PMC6377630, “NapM enhances the survival of Mycobacterium tuberculosis under stress and in macrophages” (Communications Biology, 2019).

T1: DnaA (M. tuberculosis H37Ra, UniProt P9WNW3 1-507)
T1 construct: also called DnaA protein
T1 sequence: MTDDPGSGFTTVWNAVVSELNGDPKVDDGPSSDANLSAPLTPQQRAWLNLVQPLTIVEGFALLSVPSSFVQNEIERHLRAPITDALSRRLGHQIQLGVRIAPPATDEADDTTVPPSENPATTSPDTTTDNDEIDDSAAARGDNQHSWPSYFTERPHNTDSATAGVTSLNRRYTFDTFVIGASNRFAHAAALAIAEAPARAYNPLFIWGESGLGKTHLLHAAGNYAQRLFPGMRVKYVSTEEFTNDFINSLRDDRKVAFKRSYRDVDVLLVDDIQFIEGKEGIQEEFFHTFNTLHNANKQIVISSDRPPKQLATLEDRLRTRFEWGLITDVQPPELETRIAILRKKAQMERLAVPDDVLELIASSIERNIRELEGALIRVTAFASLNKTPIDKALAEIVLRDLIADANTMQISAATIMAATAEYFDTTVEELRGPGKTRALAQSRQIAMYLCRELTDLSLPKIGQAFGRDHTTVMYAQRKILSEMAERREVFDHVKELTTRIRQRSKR

B1: NapM (Rv0047c), nucleoid-associated protein (natural protein)
chain: MLELAILGLLIESPMHGYELRKRLTGLLGAFRAFSYGSLYPALRRMQADGLIAENAAPAGTPVRRARRVYQLTDKGRRRFGELVADTGPHNYTDDGFGVHLAFFNRTPAEARMRILEGRRRQVEERREGLREAVARASSSFDRYTRQLHQLGLESSEREVKWLNELIAAERAAPNPAEQT

Legend:
[1] = target: DnaA (M. tuberculosis H37Ra) (UniProt P9WNW3); assay: SPR; DnaA immobilised on CM5 chip (5.7 μM), NapM proteins passed over; Biacore 3000; 10 mM HEPES, 150 mM NaCl, 3 mM EDTA, 0.01% surfactant P20, pH 7.4; 25 °C
DnaA = target: T1, DnaA; assay: as above; conditions: both partners purified

Row | Molecule | Kd [1] | Kd (DnaA)
1 | NapM C-terminal domain (CTD) (domain or fragment) | 500 nM | –
2 | B1 | – | 380 nM
